We go through four molecules from US20200392227A1 (LYVGEN BIOPHARMA, published 2020).

The target of assay [1] is T1, human FcRI protein (MednaBio, E1031) (human, UniProt P12314 16-288, limits assumed).
T1 construct: Bought; loaded on anti-penta-HIS biosensors; also called FcγRI
Put plainly: BLI. The method, boiled down:
(§1)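 On an Octet Red96 System, anti-penta-HIS biosensors loaded with commercial human Fc receptor proteins were dipped into test IgG diluted 1:3 over 8 points from 300 nM. Fcγ receptor runs used pH 7.2 and FcRn runs used pH 6. Global fitting of these biolayer interferometry data gave the values for Kd, kon and koff, using a 1:1 binding model.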

Assay [2] has as its target T2, human FcRIIA protein (MednaBio, E1033) (human, UniProt P12318 34-218, limits assumed).
T2 construct: Bought; also called FcγRIIA
T2 sequence (looked up): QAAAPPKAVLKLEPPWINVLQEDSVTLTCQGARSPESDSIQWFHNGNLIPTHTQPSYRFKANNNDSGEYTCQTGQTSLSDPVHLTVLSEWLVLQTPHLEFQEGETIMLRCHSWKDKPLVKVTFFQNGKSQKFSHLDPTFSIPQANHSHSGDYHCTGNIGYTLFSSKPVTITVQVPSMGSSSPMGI
Briefly: BLI. The method, boiled down:
as §1

Assay [3] deals with T3, human FcRIIB/C protein (MednaBio, E1034) (human, UniProt P31994 43-217, limits assumed).
T3 construct: Bought as FcRIIB/C; also called FcγRIIB; CD32B
T3 sequence (looked up): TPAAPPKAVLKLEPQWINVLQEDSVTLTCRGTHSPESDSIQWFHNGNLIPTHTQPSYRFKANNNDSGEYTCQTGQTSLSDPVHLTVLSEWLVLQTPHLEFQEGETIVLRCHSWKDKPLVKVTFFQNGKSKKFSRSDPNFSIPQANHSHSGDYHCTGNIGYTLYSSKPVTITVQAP
Briefly: BLI. A digest of the protocol:
as §1

The target of assay [4] is T4, human FcRIIIA-F158 protein (MednaBio, E1036) (human, UniProt P08637 17-208).
T4 construct: Bought; also called FcγRIIIA(F)
Put plainly: BLI. A digest of the protocol:
as §1

In assay [5] the target is T5, human FcRIIIA-V158 protein (MednaBio, E1035) (human, UniProt P08637 17-208).
T5 construct: Bought; also called FcγRIIIA(V); FcgRIIIA(V)
Briefly: BLI. A digest of the protocol: as §1

Assay [6] deals with T6, human FcRIIIB protein (MednaBio, E1037) (human, UniProt O75015 17-200).
T6 construct: Bought; also called FcγRIIIB; FcgRIIIB
Briefly: BLI. The method, boiled down: as §1

For assay [7], the target named is T7, human FcRn protein (MednaBio, E1032) (human, UniProt P55899 24-297; P61769 21-119).
T7 construct: Bought; assays at pH 6
Briefly: BLI. The method, boiled down:
as §1

For assay [8], the target named is T8, human FcγRI expressed on CHO cells (human, UniProt P12314 16-374).
T8 construct: whole, on cells
Briefly: FACS, CHO cells expressing FcγRI. A digest of the protocol:
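Trypsin-harvested CHO cells overexpressing each FcγR were incubated 2 h at 4 °C with IgG mutants in 3% BSA/PBS. Bound IgG was detected with PE-labeled anti-human IgG (2 h, 4 °C), then cells were fixed in 2% PFA and analysed by flow cytometry.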

Substitutions are numbered along the chain they refer to.

T6 sequence (O75015 17-200 limits assumed): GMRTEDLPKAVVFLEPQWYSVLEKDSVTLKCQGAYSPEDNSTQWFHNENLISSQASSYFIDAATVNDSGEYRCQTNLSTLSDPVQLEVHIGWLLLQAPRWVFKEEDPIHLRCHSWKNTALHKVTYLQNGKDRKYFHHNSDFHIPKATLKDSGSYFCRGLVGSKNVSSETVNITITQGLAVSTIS
T7 sequence (P55899 24-297 limits assumed, form in doubt, chain 1 of 2): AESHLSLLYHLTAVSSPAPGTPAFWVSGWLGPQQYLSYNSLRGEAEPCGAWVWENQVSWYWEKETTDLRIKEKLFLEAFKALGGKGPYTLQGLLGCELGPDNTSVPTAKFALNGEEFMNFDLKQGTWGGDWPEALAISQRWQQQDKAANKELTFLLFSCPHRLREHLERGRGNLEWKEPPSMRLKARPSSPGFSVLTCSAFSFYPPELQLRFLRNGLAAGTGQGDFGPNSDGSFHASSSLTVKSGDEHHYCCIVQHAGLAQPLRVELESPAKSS
T7 sequence (P61769 21-119 limits assumed, form in doubt, chain 2 of 2): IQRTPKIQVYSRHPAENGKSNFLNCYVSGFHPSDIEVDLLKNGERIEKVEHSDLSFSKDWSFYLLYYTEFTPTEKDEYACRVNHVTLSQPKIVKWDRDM
T4 sequence (P08637 17-208 limits assumed): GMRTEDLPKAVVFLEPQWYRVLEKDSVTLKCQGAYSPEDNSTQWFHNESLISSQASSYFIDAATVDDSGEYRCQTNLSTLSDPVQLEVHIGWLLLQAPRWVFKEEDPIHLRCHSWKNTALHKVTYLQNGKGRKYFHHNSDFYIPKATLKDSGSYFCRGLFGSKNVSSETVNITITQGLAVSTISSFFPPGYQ
T1 sequence (P12314 16-288 limits assumed): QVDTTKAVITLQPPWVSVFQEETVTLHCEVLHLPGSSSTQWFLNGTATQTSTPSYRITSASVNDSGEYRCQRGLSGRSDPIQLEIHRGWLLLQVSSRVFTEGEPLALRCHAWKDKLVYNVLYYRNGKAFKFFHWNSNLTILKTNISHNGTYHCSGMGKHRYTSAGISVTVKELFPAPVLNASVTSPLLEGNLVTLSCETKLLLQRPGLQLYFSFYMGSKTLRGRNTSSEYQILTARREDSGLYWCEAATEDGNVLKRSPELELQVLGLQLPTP
T5 sequence (P08637 17-208 F176V): as the sequence (P08637 17-208 limits assumed) above, with F160V counted along it
T8 sequence (P12314 16-374): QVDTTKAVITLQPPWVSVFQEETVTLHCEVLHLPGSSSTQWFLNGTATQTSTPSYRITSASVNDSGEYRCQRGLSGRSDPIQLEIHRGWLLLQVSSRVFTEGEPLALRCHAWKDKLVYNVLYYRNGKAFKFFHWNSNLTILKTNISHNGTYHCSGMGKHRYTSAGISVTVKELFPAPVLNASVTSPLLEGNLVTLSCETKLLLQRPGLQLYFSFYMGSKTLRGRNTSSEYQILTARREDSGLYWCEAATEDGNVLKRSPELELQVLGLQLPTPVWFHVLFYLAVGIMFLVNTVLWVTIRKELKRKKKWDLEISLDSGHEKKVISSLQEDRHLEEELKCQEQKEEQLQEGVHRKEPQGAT

B1: anti-CD137 IgG2 with Fc variant G2m17 (antibody)
heavy: EVQLVQSGAEVKKPGESLRISCKGSGYSFSTYWISWVRQMPGKGLEWMGKIYPGDSYTNYSPSFQGQVTISADKSISTAYLQWSSLKASDTAMYYCARGYGIFDYWGQGTLVTVSSASTKGPSVFPLAPCSRSTSESTAALGCLVKDYFPEPVTVSWNSGALTSGVHTFPAVLQSSGLYSLSSVVTVPSSNFGTQTYTCNVDHKPSNTKVDKTVERKCCVECPPCPAPPVASVFLFPPKPKDTLMISRTPEVTCVVVDVEHEDPEVQFNWYVDGVEVHNAKTKPREEQFNSTFRVVSVLTVVHQDWLNGKEYKCKVSNKGLPAPIEKTISKTKGQPREPQVYTLPPSREEMTKNQVSLTCLVKGFYPSDIAVEWESNGQPENNYKTTPPMLDSDGSFFLYSKLTVDKSRWQQGNVFSCSVMHEALHNHYTQKSLSLSPGK
light: SYELTQPPSVSVSPGQTASITCSGDNIGDQYAHWYQQKPGQSPVLVIYQDKNRPSGIPERFSGSNSGNTATLTISGTQAMDEADYYCATYTGFGSLAVFGGGTKLTVLGQPKAAPSVTLFPPSSEELQANKATLVCLISDFYPGAVTVAWKADSSPVKAGVETTTPSKQSNNKYAASSYLSLTPEQWKSHRSYSCQVTHEGSTVEKTVAPTECS
notes: copies: 2 + 2
As to B1, the Kd in assay [1] was 253 nM; in assay [2] it was 422 nM; in assay [3], 236 nM; in assay [4] it was 168 nM; in assay [5], 153 nM; in assay [6], 117 nM. Also, the Kd in assay [7] came out at 7.46 nM. The koff in assay [1] was 0.277 s⁻¹; in assay [2] it was 0.274 s⁻¹; in assay [3], 0.0848 s⁻¹; in assay [4] it was 0.262 s⁻¹; in assay [5] it was 0.205 s⁻¹; in assay [6] it was 0.204 s⁻¹. Also, the off-rate (koff) in assay [7] came to 0.0139 s⁻¹. The kon in assay [1] amounted to 1.09e+06 M⁻¹ s⁻¹; in assay [2] it was 648000 M⁻¹ s⁻¹; in assay [3], 361000 M⁻¹ s⁻¹; in assay [4] it was 1.56e+06 M⁻¹ s⁻¹; in assay [5] it was 1.34e+06 M⁻¹ s⁻¹; in assay [6], 1.74e+06 M⁻¹ s⁻¹. This molecule displayed a kon in assay [7] of 1.87e+06 M⁻¹ s⁻¹.

B2: anti-CD137 IgG2 with Fc variant G2m20 (antibody)
heavy: EVQLVQSGAEVKKPGESLRISCKGSGYSFSTYWISWVRQMPGKGLEWMGKIYPGDSYTNYSPSFQGQVTISADKSISTAYLQWSSLKASDTAMYYCARGYGIFDYWGQGTLVTVSSASTKGPSVFPLAPCSRSTSESTAALGCLVKDYFPEPVTVSWNSGALTSGVHTFPAVLQSSGLYSLSSVVTVPSSNFGTQTYTCNVDHKPSNTKVDKTVERKCCVECPPCPAPPVAPSVFLFPPKPKDTLMISRTPEVTCVVVDVSHEDPEVQFNWYVDGVEVHNAKTKPREEQFNSTFRVVSVLTVVHQDWLNGKEYKCKVSNKGLPAPIEKTISKTKGQPREPQVYTLPPSREEMTKNQVSLTCLVKGFYPSDIAVEWESNGQPENNYKTTPPMLDSDGSFFLYSKLTVDKSRWQQGNVFSCSVMHEALHNHYTQKSLSLSPGK
light: B1 light
notes: copies: 2 + 2
In the case of B2, the binding result in assay [1] and in assay [6] was “no binding (tested: 300 nM)” in each case. For the same molecule, the Kd in assay [2] came to 829 nM; in assay [3], 517 nM; in assay [4], 917 nM; in assay [5], 1260 nM; in assay [7] it was 57.6 nM. Moreover, the koff in assay [2] was found to be 0.0165 s⁻¹; in assay [3] it was 0.0915 s⁻¹; in assay [4] it was 0.013 s⁻¹; in assay [5], 0.0149 s⁻¹; in assay [7] it was 0.0122 s⁻¹. For the same molecule, the kon amounted to 19900 M⁻¹ s⁻¹ in assay [2]; 176000 M⁻¹ s⁻¹ in assay [3]; 14300 M⁻¹ s⁻¹ in assay [4]; 11800 M⁻¹ s⁻¹ in assay [5]; 212000 M⁻¹ s⁻¹ in assay [7].

B3: anti-CD137 IgG2 with Fc variant G2m28 (antibody)
heavy: B2 heavy with S261E
light: B1 light
notes: also called Gbn28; copies: 2 + 2
With B3, the Kd in assay [1] was determined as 66.1 nM; in assay [2], 191 nM; in assay [3], 256 nM; in assay [4], 527 nM; in assay [7], 26.4 nM. The koff in assay [1] amounted to 0.098 s⁻¹; in assay [2], 0.0898 s⁻¹; in assay [3], 0.0464 s⁻¹; in assay [4], 0.257 s⁻¹; in assay [7] it was 0.0195 s⁻¹. In addition, the kon in assay [1] was 1.49e+06 M⁻¹ s⁻¹; in assay [2], 470000 M⁻¹ s⁻¹; in assay [3] it was 181000 M⁻¹ s⁻¹; in assay [4] it was 487000 M⁻¹ s⁻¹; in assay [7] it was 737000 M⁻¹ s⁻¹. In addition, the binding result in assay [5] and in assay [6] was “no binding (tested: 300 nM)” in each case.

B4: anti-CD137 IgG2 with Fc variant G2m19 (antibody)
heavy: B1 heavy with L321F
light: B1 light
notes: copies: 2 + 2
As to B4, the binding result is “no binding (tested: 300 nM)” in assay [1]; “no binding (tested: 300 nM)” in assay [4]; “no binding (tested: 300 nM)” in assay [5]; “no binding (tested: 300 nM)” in assay [6]; “no binding (tested: 10 ug/mL)” in assay [8]. Also, the dissociation constant (Kd) in assay [2] is 336 nM; in assay [3], 240 nM; in assay [7], 35.4 nM. In addition, the koff is 0.0836 s⁻¹ in assay [2], 0.0387 s⁻¹ in assay [3] and 0.00941 s⁻¹ in assay [7]. Further, the kon is 249000 M⁻¹ s⁻¹ in assay [2], 162000 M⁻¹ s⁻¹ in assay [3] and 265000 M⁻¹ s⁻¹ in assay [7].
